Residue numbers refer to the chain shown, from its start. Names and notes keep the numbering of the source.
Target: the molecule itself
Assay: cryo-EM structure

B1: human potassium-chloride co-transporter 3 (KCC3), full length, wild type (natural protein, UniProt Q9UHW9-2 1-1099, looked up)
chain: MPHFTVTKVEDPEEGAAASISQEPSLADIKARIQDSDEPDLSQNSITGEHSQLLDDGHKKARNAYLNNSNYEEGDEYFDKNLALFEEEMDTRPKVSSLLNRMANYTNLTQGAKEHEEAENITEGKKKPTKTPQMGTFMGVYLPCLQNIFGVILFLRLTWVVGTAGVLQAFAIVLICCCCTMLTAISMSAIATNGVVPAGGSYFMISRALGPEFGGAVGLCFYLGTTFAAAMYILGAIEIFLVYIVPRAAIFHSDDALKESAAMLNNMRVYGTAFLVLMVLVVFIGVRYVNKFASLFLACVIVSILAIYAGAIKSSFAPPHFPVCMLGNRTLSSRHIDVCSKTKEINNMTVPSKLWGFFCNSSQFFNATCDEYFVHNNVTSIQGIPGLASGIITENLWSNYLPKGEIIEKPSAKSSDVLGSLNHEYVLVDITTSFTLLVGIFFPSVTGIMAGSNRSGDLKDAQKSIPIGTILAILTTSFVYLSNVVLFGACIEGVVLRDKFGDAVKGNLVVGTLSWPSPWVIVIGSFFSTCGAGLQSLTGAPRLLQAIAKDNIIPFLRVFGHSKANGEPTWALLLTAAIAELGILIASLDLVAPILSMFFLMCYLFVNLACALQTLLRTPNWRPRFRYYHWALSFMGMSICLALMFISSWYYAIVAMVIAGMIYKYIEYQGAEKEWGDGIRGLSLSAARFALLRLEEGPPHTKNWRPQLLVLLKLDEDLHVKHPRLLTFASQLKAGKGLTIVGSVIVGNFLENYGEALAAEQTIKHLMEAEKVKGFCQLVVAAKLREGISHLIQSCGLGGMKHNTVVMGWPNGWRQSEDARAWKTFIGTVRVTTAAHLALLVAKNISFFPSNVEQFSEGNIDVWWIVHDGGMLMLLPFLLKQHKVWRKCSIRIFTVAQLEDNSIQMKKDLATFLYHLRIEAEVEVVEMHDSDISAYTYERTLMMEQRSQMLRHMRLSKTERDREAQLVKDRNSMLRLTSIGSDEDEETETYQEKVHMTWTKDKYMASRGQKAKSMEGFQDLLNMRPDQSNVRRMHTAVKLNEVIVNKSHEAKLVLLNMPGPPRNPEGDENYMEFLEVLTEGLERVLLVRGGGSEVITIYS
modifications: phosphorylated threonine built on T940 and T997 (from the cryo-EM map and mass spectra); carbohydrate chains
stoichiometry N: 2

B2: KCC3 dephosphorylation mimic mutant S45A/T940V/T997V (natural protein, human, UniProt Q9UHW9-2 1-1099, looked up)
chain: B1 chain with S45A, T940V, T997V
binding result: binds

B3: KCC3 phosphorylation mimic mutant S45E/T940E/T997E (natural protein, human, UniProt Q9UHW9-2 1-1099, looked up)
chain: B1 chain with S45E, T940E, T997E
binding result: binds

B4: human potassium-chloride co-transporter 2 (KCC2), full length (natural protein, UniProt Q9H2X9-2 1-1116, looked up)
chain: MLNNLTDCEDGDGGANPGDGNPKESSPFINSTDTEKGKEYDGKNMALFEEEMDTSPMVSSLLSGLANYTNLPQGSREHEEAENNEGGKKKPVQAPRMGTFMGVYLPCLQNIFGVILFLRLTWVVGIAGIMESFCMVFICCSCTMLTAISMSAIATNGVVPAGGSYYMISRSLGPEFGGAVGLCFYLGTTFAGAMYILGTIEILLAYLFPAMAIFKAEDASGEAAAMLNNMRVYGTCVLTCMATVVFVGVKYVNKFALVFLGCVILSILAIYAGVIKSAFDPPNFPICLLGNRTLSRHGFDVCAKLAWEGNETVTTRLWGLFCSSRFLNATCDEYFTRNNVTEIQGIPGAASGLIKENLWSSYLTKGVIVERSGMTSVGLADGTPIDMDHPYVFSDMTSYFTLLVGIYFPSVTGIMAGSNRSGDLRDAQKSIPTGTILAIATTSAVYISSVVLFGACIEGVVLRDKFGEAVNGNLVVGTLAWPSPWVIVIGSFFSTCGAGLQSLTGAPRLLQAISRDGIVPFLQVFGHGKANGEPTWALLLTACICEIGILIASLDEVAPILSMFFLMCYMFVNLACAVQTLLRTPNWRPRFRYYHWTLSFLGMSLCLALMFICSWYYALVAMLIAGLIYKYIEYRGAEKEWGDGIRGLSLSAARYALLRLEEGPPHTKNWRPQLLVLVRVDQDQNVVHPQLLSLTSQLKAGKGLTIVGSVLEGTFLENHPQAQRAEESIRRLMEAEKVKGFCQVVISSNLRDGVSHLIQSGGLGGLQHNTVLVGWPRNWRQKEDHQTWRNFIELVRETTAGHLALLVTKNVSMFPGNPERFSEGSIDVWWIVHDGGMLMLLPFLLRHHKVWRKCKMRIFTVAQMDDNSIQMKKDLTTFLYHLRITAEVEVVEMHESDISAYTYEKTLVMEQRSQILKQMHLTKNEREREIQSITDESRGSIRRKNPANTRLRLNVPEETAGDSEEKPEEEVQLIHDQSAPSCPSSSPSPGEEPEGEGETDPEKVHLTWTKDKSVAEKNKGPSPVSSEGIKDFFSMKPEWENLNQSNVRRMHTAVRLNEVIVKKSRDAKLVLLNMPGPPRNRNGDENYMEFLEVLTEHLDRVMLVRGGGREVITIYS
stoichiometry N: 2

Reference: publication doi:10.1101/2020.02.22.960815 (bioRxiv, 2020)
